# Results: patent publication US20260265321A1, “PEPTIDE AND POLYPEPTIDE INHIBITING THE NF-KB SIGNALING PATHWAY” (Centre National de la Recherche Scientifique, priority 2023, published 2026)
# T1: G2-p100 1-852 (UniProt Q00653 1-852)
# T1 construct: range 1-852; not shown: Gluc2 fragment of Gaussia princeps luciferase and flexible 20 amino acid linker, N-terminal
# T1 sequence (looked up): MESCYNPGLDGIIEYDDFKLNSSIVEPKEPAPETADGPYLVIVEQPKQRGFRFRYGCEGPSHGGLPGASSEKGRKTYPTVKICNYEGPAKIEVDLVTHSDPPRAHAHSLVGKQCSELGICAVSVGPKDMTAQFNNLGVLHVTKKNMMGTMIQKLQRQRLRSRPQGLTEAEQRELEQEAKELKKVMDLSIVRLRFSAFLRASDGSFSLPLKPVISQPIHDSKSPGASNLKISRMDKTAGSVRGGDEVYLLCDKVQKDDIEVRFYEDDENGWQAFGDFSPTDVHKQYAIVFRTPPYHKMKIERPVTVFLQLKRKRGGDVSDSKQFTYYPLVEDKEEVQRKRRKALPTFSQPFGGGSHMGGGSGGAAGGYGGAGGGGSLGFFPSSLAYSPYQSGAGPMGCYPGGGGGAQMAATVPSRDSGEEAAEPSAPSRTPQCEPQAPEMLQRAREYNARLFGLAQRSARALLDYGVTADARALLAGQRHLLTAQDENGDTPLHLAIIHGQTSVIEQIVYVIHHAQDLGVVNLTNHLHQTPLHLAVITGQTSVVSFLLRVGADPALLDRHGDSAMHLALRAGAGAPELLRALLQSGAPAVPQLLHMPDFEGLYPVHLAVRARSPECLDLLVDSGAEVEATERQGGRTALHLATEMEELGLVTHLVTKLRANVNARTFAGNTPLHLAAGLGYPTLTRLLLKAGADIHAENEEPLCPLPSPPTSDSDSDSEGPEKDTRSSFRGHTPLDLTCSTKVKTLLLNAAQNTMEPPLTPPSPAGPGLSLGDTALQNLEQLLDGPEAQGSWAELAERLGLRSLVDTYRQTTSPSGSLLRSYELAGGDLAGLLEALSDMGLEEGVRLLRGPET
# T2: IKKα(10-667) S176E/S180E homodimer, 6×His tag removed (human, UniProt O15111 10-667)
# T2 construct: also called purified IKKα
# T2 sequence (looked up): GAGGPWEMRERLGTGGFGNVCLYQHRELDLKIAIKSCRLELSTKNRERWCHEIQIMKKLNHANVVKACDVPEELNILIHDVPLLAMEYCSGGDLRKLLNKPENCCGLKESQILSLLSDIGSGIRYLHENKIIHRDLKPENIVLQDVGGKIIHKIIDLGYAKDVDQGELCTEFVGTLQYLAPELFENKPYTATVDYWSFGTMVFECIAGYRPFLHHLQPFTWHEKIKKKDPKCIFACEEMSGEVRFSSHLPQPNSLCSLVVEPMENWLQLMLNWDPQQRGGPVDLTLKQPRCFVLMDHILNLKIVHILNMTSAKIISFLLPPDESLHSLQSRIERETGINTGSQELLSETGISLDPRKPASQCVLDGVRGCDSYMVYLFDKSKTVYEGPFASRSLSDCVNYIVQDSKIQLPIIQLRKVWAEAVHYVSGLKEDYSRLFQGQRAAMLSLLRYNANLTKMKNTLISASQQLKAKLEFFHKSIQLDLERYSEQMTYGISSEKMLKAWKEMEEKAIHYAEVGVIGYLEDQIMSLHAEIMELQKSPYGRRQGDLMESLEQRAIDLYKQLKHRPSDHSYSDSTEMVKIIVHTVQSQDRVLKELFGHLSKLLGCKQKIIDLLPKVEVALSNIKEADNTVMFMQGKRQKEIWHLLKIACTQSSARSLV
# T3: IKKβ(1-669) S177E/S181E homodimer, 6×His tag removed (human, UniProt O14920 1-669)
# T3 sequence (looked up): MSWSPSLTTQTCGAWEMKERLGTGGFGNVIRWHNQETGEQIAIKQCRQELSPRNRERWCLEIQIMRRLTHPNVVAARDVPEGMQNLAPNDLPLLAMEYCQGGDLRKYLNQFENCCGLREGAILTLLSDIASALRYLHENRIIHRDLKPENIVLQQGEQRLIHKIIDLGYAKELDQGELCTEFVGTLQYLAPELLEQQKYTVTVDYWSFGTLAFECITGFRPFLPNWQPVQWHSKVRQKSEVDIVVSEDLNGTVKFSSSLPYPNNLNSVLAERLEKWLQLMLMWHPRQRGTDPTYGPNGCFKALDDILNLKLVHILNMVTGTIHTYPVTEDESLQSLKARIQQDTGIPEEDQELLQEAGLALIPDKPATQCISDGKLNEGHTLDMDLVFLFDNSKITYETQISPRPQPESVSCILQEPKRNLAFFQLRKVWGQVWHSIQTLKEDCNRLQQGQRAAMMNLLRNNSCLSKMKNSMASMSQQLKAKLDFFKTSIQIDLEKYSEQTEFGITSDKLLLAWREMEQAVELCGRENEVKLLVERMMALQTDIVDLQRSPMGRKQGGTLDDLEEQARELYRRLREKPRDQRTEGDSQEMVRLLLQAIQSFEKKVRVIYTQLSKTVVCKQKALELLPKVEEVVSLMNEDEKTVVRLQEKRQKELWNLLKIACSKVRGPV
# B1: G1-IKKα, full-length wt IKKα fused to the Gluc1 fragment (enzyme, human, UniProt O15111 1-745, looked up)
# chain: MERPPGLRPGAGGPWEMRERLGTGGFGNVCLYQHRELDLKIAIKSCRLELSTKNRERWCHEIQIMKKLNHANVVKACDVPEELNILIHDVPLLAMEYCSGGDLRKLLNKPENCCGLKESQILSLLSDIGSGIRYLHENKIIHRDLKPENIVLQDVGGKIIHKIIDLGYAKDVDQGSLCTSFVGTLQYLAPELFENKPYTATVDYWSFGTMVFECIAGYRPFLHHLQPFTWHEKIKKKDPKCIFACEEMSGEVRFSSHLPQPNSLCSLVVEPMENWLQLMLNWDPQQRGGPVDLTLKQPRCFVLMDHILNLKIVHILNMTSAKIISFLLPPDESLHSLQSRIERETGINTGSQELLSETGISLDPRKPASQCVLDGVRGCDSYMVYLFDKSKTVYEGPFASRSLSDCVNYIVQDSKIQLPIIQLRKVWAEAVHYVSGLKEDYSRLFQGQRAAMLSLLRYNANLTKMKNTLISASQQLKAKLEFFHKSIQLDLERYSEQMTYGISSEKMLKAWKEMEEKAIHYAEVGVIGYLEDQIMSLHAEIMELQKSPYGRRQGDLMESLEQRAIDLYKQLKHRPSDHSYSDSTEMVKIIVHTVQSQDRVLKELFGHLSKLLGCKQKIIDLLPKVEVALSNIKEADNTVMFMQGKRQKEIWHLLKIACTQSSARSLVGSSLEGAVTPQTSAWLPPTSAEHDHSLSCVVTPQDGETSAQMIEENLNCLGHLSTIIHEANEEQGNSMMNLDWSWLTE
# notes: Expressed in HEK293T cells for GPCA; full-length; also called Gluc1-IKKα; not shown: Gluc1 fragment of Gaussia princeps luciferase and flexible 20 amino acid linker, N-terminal
# Assays:
# [1] = molecular target: T1, G2-p100 1-852; assay: GPCA (Gaussia princeps protein complementation assay), G1-IKKα FL with G2-p100 constructs, NLR
# Description: (§1) HEK293T cells were transfected using the reverse transfection method. Transfection mixes containing 100 ng of pSPICA-N2 and 100 ng of pSPICA-N1 plasmids expressing test proteins plus JetPEI® (Polyplus transfection) were dispensed in white 96-well plates. HEK293T cells were then seeded on the DNA mixes at a concentration of 4.2×10^4 cells per well. 48 hours after transfection, cells were washed with 50 μl of PBS and lysed with 40 μl of Renilla lysis buffer (Promega, E2820) for 30 minutes with agitation. Gaussia princeps luciferase enzymatic activity was measured using a Berthold Centro LB960 luminometer by injecting 50 μl per well of luciferase substrate reagent (Promega, E2820) and counting luminescence for 10 seconds. Results are expressed as a fold change normalized over the sum of controls, specified herein as normalized luminescence ratio (NLR) 29. For a given protein pair A/B, NLR=(Gluc1-A+Gluc2-B)/[(Gluc1-A+Gluc2)+(Gluc1+Gluc2-B)]. All interactions were measured in three independent experiments, with each experiment being carried out in triplicate. The expression levels of Gluc1- and Gluc2-fused proteins were checked by Western blotting. 24 hours post-transfection, HEK293T cells were collected, lysed by incubation on ice and centrifuged. Aliquots of cleared supernatants were loaded onto an 10% SDS-PAGE gel.
# [2] = molecular target: B1; assay: as above
# Description: as §1
# [3] = molecular target: T2, IKKα(10-667) S176E/S180E homodimer, …; assay: ITC
# Description: (§2) All experiments were performed in ITC buffer (20 mM HEPES pH 8.0, 150 mM NaCl, 1 mM TCEP) unless otherwise stated. […] Just before the ITC experiments, IKKα or IKKβ samples were concentrated, incubated at room temperature for 30 minutes and centrifuged at 11000 g to remove eventual precipitate. The final concentrations of IKKα and IKKβ in the sample cell varied between 22 and 50 μM depending on the measurement. […] The concentration of peptides in the syringe varied between 220 and 975 μM depending on the measurement.
# (§3) All ITC experiments were performed at 25° C. The data were fitted to a 1:1 binding model. […] All data were processed using NITPIC software and global fitting of two datasets was carried out using SEDPHAD.
# [4] = molecular target: T3, IKKβ(1-669) S177E/S181E homodimer, …; assay: ITC
# Description: as §2, §3
# [5] = molecular target: T2, IKKα(10-667) S176E/S180E homodimer, …; assay: ITC, 25 °C, synthetic peptide into IKK homodimer, 1:1 model
# Description: as §2, §3
# [6] = molecular target: T3, IKKβ(1-669) S177E/S181E homodimer, …; assay: as above
# Description: as §2, §3
binder,measurement,setting,value
B1,binding result,[1],binds
"FL YD/SS (other, also called G2-p100 FL YD/SS; G2-p100 FL Y15S/D17S; not shown: N-terminal Gluc2 fragment of Gaussia princeps luciferase and the flexible 20 amino acid linker (pSPICA-N2)) MESCYNPGLDGIIESDSFKLNSSIVEPKEPAPETADGPYLVIVEQPKQRGFRFRYGCEGPSHGGLPGASSEKGRKTYPTVKICNYEGPAKIEVDLVTHSDPPRAHAHSLVGKQCSELGICAVSVGPKDMTAQFNNLGVLHVTKKNMMGTMIQKLQRQRLRSRPQGLTEAEQRELEQEAKELKKVMDLSIVRLRFSAFLRASDGSFSLPLKPVISQPIHDSKSPGASNLKISRMDKTAGSVRGGDEVYLLCDKVQKDDIEVRFYEDDENGWQAFGDFSPTDVHKQYAIVFRTPPYHKMKIERPVTVFLQLKRKRGGDVSDSKQFTYYPLVEDKEEVQRKRRKALPTFSQPFGGGSHMGGGSGGAAGGYGGAGGGGSLGFFPSSLAYSPYQSGAGPMGCYPGGGGGAQMAATVPSRDSGEEAAEPSAPSRTPQCEPQAPEMLQRAREYNARLFGLAQRSARALLDYGVTADARALLAGQRHLLTAQDENGDTPLHLAIIHGQTSVIEQIVYVIHHAQDLGVVNLTNHLHQTPLHLAVITGQTSVVSFLLRVGADPALLDRHGDSAMHLALRAGAGAPELLRALLQSGAPAVPQLLHMPDFEGLYPVHLAVRARSPECLDLLVDSGAEVEATERQGGRTALHLATEMEELGLVTHLVTKLRANVNARTFAGNTPLHLAAGLGYPTLTRLLLKAGADIHAENEEPLCPLPSPPTSDSDSDSEGPEKDTRSSFRGHTPLDLTCSTKVKTLLLNAAQNTMEPPLTPPSPAGPGLSLGDTALQNLEQLLDGPEAQGSWAELAERLGLRSLVDTYRQTTSPSGSLLRSYELAGGDLAGLLEALSDMGLEEGVRLLRGPETRDKLPSTAEVKEDSAYGSQSVEQEAEKLGPPPEPPGGLCHGHPQPQVH",binding result,[2],binds
EFTEDELPYDDLVFGGQRLTL (also called C308L IκBα pep; IkBα pep C308L) [synthetic IκBα pep C308L],fold enhancement of affinity against IκBα pep wt,[3],25 fold
same,fold enhancement of affinity against IκBα pep wt,[4],15 fold
same,Kd,[5],0.35 µM
same,N (binding stoichiometry),[5],0.65
same,TΔS,[5],-19.7 kJ/mol
same,ΔG,[5],-36.8 kJ/mol
same,ΔH,[5],-56.5 kJ/mol
same,Kd,[6],2.6 µM
same,N (binding stoichiometry),[6],0.63
same,TΔS,[6],-19.2 kJ/mol
same,ΔG,[6],-31.8 kJ/mol
same,ΔH,[6],-51 kJ/mol
